Data: PMC10726971 (Nature chemical biology, 2023)

Biological target: the molecule itself
Assay: SEC-MALS

B1: human FUT9 soluble catalytic domain (residues 39-359) (enzyme, UniProt Q9Y231 39-359, looked up)
chain: SPMESASSVLKMKNFFSTKTDYFNETTILVWVWPFGQTFDLTSCQAMFNIQGCHLTTDRSLYNKSHAVLIHHRDISWDLTNLPQQARPPFQKWIWMNLESPTHTPQKSGIEHLFNLTLTYRRDSDIQVPYGFLTVSTNPFVFEVPSKEKLVCWVVSNWNPEHARVKYYNELSKSIEIHTYGQAFGEYVNDKNLIPTISTCKFYLSFENSIHKDYITEKLYNAFLAGSVPVVLGPSRENYENYIPADSFIHVEDYNSPSELAKYLKEVDKNNKLYLSYFNWRKDFTVNLPRFWESHACLACDHVKRHQEYKSVGNLEKWFWN
modifications: N-glycans cleaved with EndoF1; a tetrasaccharide (Manα1,3-Manβ1,4-GlcNAcβ1,4-GlcNAcβ-) is left on Asn153
With B1 the “stoichiometry N” value was 2.
